Measured values from IntAct's records for PubMed 15070730.

B1: Tumor protein p73 (Homo sapiens), O15350-2 (parent)
chain: MAQSTATSPDGGTTFEHLWSSLEPDSTYFDLPQSSRGNNEVVGGTDSSMDVFHLEGMTTSVMAQFNLLSSTMDQMSSRAASASPYTPEHAASVPTHSPYAQPSSTFDTMSPAPVIPSNTDYPGPHHFEVTFQQSSTAKSATWTYSPLLKKLYCQIAKTCPIQIKVSTPPPPGTAIRAMPVYKKAEHVTDVVKRCPNHELGRDFNEGQSAPASHLIRVEGNNLSQYVDDPVTGRQSVVVPYEPPQVGTEFTTILYNFMCNSSCVGGMNRRPILIIITLEMRDGQVLGRRSFEGRICACPGRDRKADEDHYREQQALNESSAKNGAASKRAFKQSPPAVPALGAGVKKRRHGDEDTYYLQVRGRENFEILMKLKESLELMELVPQPLVDSYRQQQQLLQRPSHLQPPSYGPVLSPMNKVHGGMNKLPSVNQLVGQPPPHSSAATPNLGPVGPGMLNNHGHAVPANGEMSSSHSAQSMVSGSHCTPPPPYHADPSLVRTWGP
partner: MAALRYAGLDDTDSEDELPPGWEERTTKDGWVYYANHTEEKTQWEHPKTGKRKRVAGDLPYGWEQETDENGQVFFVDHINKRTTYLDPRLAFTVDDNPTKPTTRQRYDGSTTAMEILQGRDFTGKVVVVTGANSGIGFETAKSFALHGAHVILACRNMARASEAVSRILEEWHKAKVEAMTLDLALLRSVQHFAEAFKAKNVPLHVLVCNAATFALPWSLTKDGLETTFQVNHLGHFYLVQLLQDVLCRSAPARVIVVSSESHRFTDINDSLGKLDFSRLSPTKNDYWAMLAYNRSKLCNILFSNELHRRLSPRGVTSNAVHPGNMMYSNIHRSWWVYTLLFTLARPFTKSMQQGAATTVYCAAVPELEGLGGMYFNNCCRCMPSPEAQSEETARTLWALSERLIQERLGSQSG
B2: WW domain-containing oxidoreductase (Homo sapiens), Q9NZC7 (parent)
chain: B1 partner
partner: B1 chain

Variants of: B1
Conditions: with wwox_human WWOX, Q9NZC7

effect of a mutation on the interaction | Variant
disrupting interaction strength | Y487A

Variants of: B2
Conditions: with TP73, O15350-2

effect of a mutation on the interaction | Variant
with no effect | Y61R
disrupting interaction strength | Y33R

Variants of: B2
Conditions: with TP73, O15350-2
Remark: another data set of the same source

effect of a mutation on the interaction | Variant
with no effect | Y33F
decreasing interaction strength | Y33R
